The source of these data is EP2785382B1 (IBC Pharmaceuticals, Inc., dated 2019).

For experiment [1], the target named is IGF-1R on cells (human) (UniProt P08069). Kind of experiment: 125I-IGF-1 binding to MCF-7L cells with antibody at 100 ng/mL.
Experiment [2] shares this target. Nature of the experiment: 125I-IGF-1 binding to MCF-7L cells with antibody at 1000 ng/mL.
The target is the same in experiment [3]. Kind of experiment: cell-based or functional assay.
Experiment [4] has the same target. Kind of experiment: flow cytometry (FACScan), MCF-7 cells.
For experiment [5] the target is unchanged. Kind of experiment: flow cytometry (FACScan), ME-180 cells.
The target is the same in experiment [6]. Kind of experiment: flow cytometry (FACScan), DU 145 cells. Background: A flow cytometer gives signals particle by particle.
Experiment [7] has as its target T1, recombinant human IGF-1R (R&D Systems, Catalog # 391-GR) (human, UniProt P08069 31-935).
T1 construct: extracellular domain; immobilized on ELISA plates or polystyrene beads; also called rhIGF-1R; IGF-1R-coated beads
Kind of experiment: rhIGF-1R on polystyrene beads (not shown).

The target of experiment [8] is recombinant human IGF-1R (R&D Systems, Catalog # 391-GR) (human) (UniProt P08069). Nature of the experiment: ELISA on immobilized rhIGF-1R (not shown); cR1 from clones 709.2D2 and 710.2G2, same affinity. For orientation: In an ELISA, binding on a coated surface is turned into a signal by an enzyme label.
Chain of recombinant human IGF-1R (R&D Systems, Catalog # 391-GR) (human) (P08069 31-935): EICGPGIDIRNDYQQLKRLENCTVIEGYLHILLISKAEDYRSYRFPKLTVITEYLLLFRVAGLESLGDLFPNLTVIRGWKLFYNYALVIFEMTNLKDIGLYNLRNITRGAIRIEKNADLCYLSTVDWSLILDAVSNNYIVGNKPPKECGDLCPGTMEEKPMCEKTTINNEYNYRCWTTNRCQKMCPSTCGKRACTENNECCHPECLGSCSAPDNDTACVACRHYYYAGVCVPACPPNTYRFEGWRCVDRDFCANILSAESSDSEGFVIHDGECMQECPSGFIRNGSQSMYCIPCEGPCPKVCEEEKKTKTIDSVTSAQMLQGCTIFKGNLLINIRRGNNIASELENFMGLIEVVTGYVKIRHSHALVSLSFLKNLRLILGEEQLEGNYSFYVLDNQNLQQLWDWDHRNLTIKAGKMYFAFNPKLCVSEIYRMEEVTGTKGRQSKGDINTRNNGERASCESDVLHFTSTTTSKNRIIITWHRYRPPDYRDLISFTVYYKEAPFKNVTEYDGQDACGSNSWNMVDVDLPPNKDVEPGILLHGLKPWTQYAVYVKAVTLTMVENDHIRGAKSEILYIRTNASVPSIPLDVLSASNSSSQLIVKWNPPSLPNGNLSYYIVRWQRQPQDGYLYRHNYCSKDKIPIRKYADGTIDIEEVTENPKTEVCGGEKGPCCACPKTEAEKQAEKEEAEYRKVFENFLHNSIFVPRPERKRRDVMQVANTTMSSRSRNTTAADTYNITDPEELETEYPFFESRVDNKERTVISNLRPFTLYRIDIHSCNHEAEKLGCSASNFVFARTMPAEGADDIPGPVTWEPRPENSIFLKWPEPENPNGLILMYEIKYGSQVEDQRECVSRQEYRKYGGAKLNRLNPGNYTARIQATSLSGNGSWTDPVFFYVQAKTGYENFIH

Chain of IGF-1R on cells (human) (P08069 31-1367): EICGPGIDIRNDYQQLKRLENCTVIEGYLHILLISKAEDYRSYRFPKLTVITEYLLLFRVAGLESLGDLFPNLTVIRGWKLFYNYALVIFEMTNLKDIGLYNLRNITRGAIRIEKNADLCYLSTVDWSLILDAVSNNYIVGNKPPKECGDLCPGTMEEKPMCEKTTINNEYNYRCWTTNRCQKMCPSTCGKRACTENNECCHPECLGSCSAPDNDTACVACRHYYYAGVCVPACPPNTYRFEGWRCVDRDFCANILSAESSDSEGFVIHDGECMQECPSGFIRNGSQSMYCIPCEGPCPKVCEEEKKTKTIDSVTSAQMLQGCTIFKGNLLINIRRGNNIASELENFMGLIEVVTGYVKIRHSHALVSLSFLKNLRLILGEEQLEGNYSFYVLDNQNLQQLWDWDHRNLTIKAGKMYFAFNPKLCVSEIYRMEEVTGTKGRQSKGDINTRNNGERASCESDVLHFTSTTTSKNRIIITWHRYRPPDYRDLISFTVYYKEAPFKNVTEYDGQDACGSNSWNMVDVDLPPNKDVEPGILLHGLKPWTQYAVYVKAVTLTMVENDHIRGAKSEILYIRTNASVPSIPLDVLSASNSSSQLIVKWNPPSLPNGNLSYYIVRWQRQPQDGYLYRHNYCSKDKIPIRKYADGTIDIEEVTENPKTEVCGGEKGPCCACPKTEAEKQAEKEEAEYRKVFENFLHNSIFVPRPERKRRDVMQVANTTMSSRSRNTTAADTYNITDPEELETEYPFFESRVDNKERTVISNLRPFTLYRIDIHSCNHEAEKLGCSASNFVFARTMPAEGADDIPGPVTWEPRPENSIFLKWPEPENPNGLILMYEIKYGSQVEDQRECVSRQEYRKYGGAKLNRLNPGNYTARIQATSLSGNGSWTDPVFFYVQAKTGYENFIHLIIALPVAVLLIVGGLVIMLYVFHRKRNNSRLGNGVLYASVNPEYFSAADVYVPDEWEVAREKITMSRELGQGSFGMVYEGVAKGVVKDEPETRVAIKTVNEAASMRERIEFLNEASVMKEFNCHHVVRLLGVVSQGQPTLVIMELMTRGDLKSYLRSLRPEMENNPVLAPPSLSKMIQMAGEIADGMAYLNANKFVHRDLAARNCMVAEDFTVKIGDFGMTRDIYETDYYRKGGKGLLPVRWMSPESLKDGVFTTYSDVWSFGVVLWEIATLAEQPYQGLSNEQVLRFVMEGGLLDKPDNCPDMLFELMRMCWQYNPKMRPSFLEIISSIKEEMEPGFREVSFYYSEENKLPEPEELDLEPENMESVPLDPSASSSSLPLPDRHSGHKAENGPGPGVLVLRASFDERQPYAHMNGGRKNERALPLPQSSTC
T1 sequence (P08069 31-935): as the sequence (P08069 31-935) above

Take MAB391 (antibody): in the experiment with IGF-1R on cells (human) [1], the % binding of 125I-IGF-1 to MCF-7L came to 54%. Further, the % binding of 125I-IGF-1 to MCF-7L with IGF-1R on cells (human) [2] is 38%. In the experiment with IGF-1R on cells (human) [3], this molecule registered a maximum growth inhibition, 786-O cells (8 nM), serum-free, IGF-1 100 ng/mL, MTS of 34%; a maximum growth inhibition, ACHN cells (200 nM), serum-free, IGF-1 100 ng/mL, MTS of 48%; a maximum growth inhibition, Caki-2 cells (8 nM), serum-free, IGF-1 100 ng/mL, MTS of 50%.

B1: hR1 (antibody, IgG1, V domains shown)
VH: QVQLQESGGGVVQPGRSLRLSCSASGFTFSDYYMYWVRQAPGKGLEWVAYITNYGGSTYYPDTVKGRFTISRDNAKNTLFLQMDSLRPEDTGVYFCARQSNYDYDGWFAYWGQGTPVTVSS
VL: DIQLTQSPSSLSASVGDRVTITCKASQEVGTAVAWYQQKPGKAPKLLIYWASTRHTGVPSRFSGSGSGTDFTFTISSLQPEDIATYFCQQYSNYPLTFGQGTKVEIKR
notes: also called humanized anti-IGF-1R; hR1 IgG
In the experiment with IGF-1R on cells (human) [4], B1 gave a % Positive of 89.2% and an MFI of 9.93. Further, in the experiment with IGF-1R on cells (human) [5], the % Positive was found to be 10.7% and the MFI stood at 3.65. In the experiment with IGF-1R on cells (human) [6], the % Positive is 30.4% and the MFI turned out to be 5.33. For the same molecule, the binding result in experiment [7] was “binds”. Also, in the experiment with IGF-1R on cells (human) [3], the concentration giving complete receptor down-regulation is 10 nM; the maximum growth inhibition, 786-O cells (8 nM), serum-free, IGF-1 100 ng/mL, MTS was determined as 26%; the maximum growth inhibition, ACHN cells (200 nM), serum-free, IGF-1 100 ng/mL, MTS stood at 3%; the maximum growth inhibition, Caki-2 cells (8 nM), serum-free, IGF-1 100 ng/mL, MTS is 33%.

B2: Hex-hR1 (antibody, V domains shown, not shown: a dimerising Fc or GST; small tags and cut ends)
VH: QVQLQESGGGVVQPGRSLRLSCSASGFTFSDYYMYWVRQAPGKGLEWVAYITNYGGSTYYPDTVKGRFTISRDNAKNTLFLQMDSLRPEDTGVYFCARQSNYDYDGWFAYWGQGTPVTVSS
VL: DIQLTQSPSSLSASVGDRVTITCKASQEVGTAVAWYQQKPGKAPKLLIYWASTRHTGVPSRFSGSGSGTDFTFTISSLQPEDIATYFCQQYSNYPLTFGQGTKVEIK
modifications: DNL complex: one IgG-AD2 and four Fab-DDD2, disulfide-locked through AD2 and DDD2. All six Fabs carry the same hR1 VH/VK [CUT]
Take B2: in the experiment with IGF-1R on cells (human) [3], the maximum growth inhibition, 786-O cells (8 nM), serum-free, IGF-1 100 ng/mL, MTS was 35%; the maximum growth inhibition, ACHN cells (200 nM), serum-free, IGF-1 100 ng/mL, MTS was 48%; the maximum growth inhibition, Caki-2 cells (8 nM), serum-free, IGF-1 100 ng/mL, MTS came to 43%.

B3: 1R-E1 (bispecific antibody, part only; not given: hRS7 Fab-DDD2 module, not shown: a dimerising Fc or GST)
heavy (part 1 of 2): QVQLQESGGGVVQPGRSLRLSCSASGFTFSDYYMYWVRQAPGKGLEWVAYITNYGGSTYYPDTVKGRFTISRDNAKNTLFLQMDSLRPEDTGVYFCARQSNYDYDGWFAYWGQGTPVTVSS
heavy (part 2 of 2): GSGGGGSGGCGQIEYLAKQIVDNAIQQAGC
light: DIQLTQSPSSLSASVGDRVTITCKASQEVGTAVAWYQQKPGKAPKLLIYWASTRHTGVPSRFSGSGSGTDFTFTISSLQPEDIATYFCQQYSNYPLTFGQGTKVEIKR
In the case of B3, the concentration substantially reducing the level of IGF-1R in MCF-7, DU-145 and LnCap in the experiment with IGF-1R on cells (human) [3] was determined as 0.1 nM.

B4: cR1 (antibody, from another filing, V domains shown)
VH: EVKLVESGGGLVQPGGSLKLSCATSGFTFSDYYMYWVRQTPEKRLEWVAYITNYGGSTYYPDTVKGRFTISRDNAKNTLYLQMSRLRSEDTAMYFCARQSNYDYDGWFAYWGQGTTVTVSS
VL: DIVMTQSHKFMSTSVGDRVSITCKASQEVGTAVAWYQQKPGQSPKLLIYWASTRHTGVPDRFTGSGSGTDFTLTISNVQSEDLADYFCQQYSNYPLTFGAGAKLELKR
Consider B4, for which the Kd (as a rule, the free concentration of one partner at which half of the binding sites on the other are occupied at equilibrium, for simple one-to-one binding) in experiment [8] turned out to be 0.1 nM.
